# Measured values taken from patent US5624899.
# pKd: −log10 of the molar value.
# Molecular target: murine Htk ligand (murine)
# Assay: steady-state competition of 125I-Htk-Fc with unlabelled Htk-Fc on SV40MES 13 cells, Scatchard analysis
substance,measurement,value
soluble Htk receptor-Fc fusion protein,pKd,8.52
